In test [1] the target is T1, P-selectin on thrombin-activated human platelets (human, UniProt P16109 42-830).
T1 sequence (looked up): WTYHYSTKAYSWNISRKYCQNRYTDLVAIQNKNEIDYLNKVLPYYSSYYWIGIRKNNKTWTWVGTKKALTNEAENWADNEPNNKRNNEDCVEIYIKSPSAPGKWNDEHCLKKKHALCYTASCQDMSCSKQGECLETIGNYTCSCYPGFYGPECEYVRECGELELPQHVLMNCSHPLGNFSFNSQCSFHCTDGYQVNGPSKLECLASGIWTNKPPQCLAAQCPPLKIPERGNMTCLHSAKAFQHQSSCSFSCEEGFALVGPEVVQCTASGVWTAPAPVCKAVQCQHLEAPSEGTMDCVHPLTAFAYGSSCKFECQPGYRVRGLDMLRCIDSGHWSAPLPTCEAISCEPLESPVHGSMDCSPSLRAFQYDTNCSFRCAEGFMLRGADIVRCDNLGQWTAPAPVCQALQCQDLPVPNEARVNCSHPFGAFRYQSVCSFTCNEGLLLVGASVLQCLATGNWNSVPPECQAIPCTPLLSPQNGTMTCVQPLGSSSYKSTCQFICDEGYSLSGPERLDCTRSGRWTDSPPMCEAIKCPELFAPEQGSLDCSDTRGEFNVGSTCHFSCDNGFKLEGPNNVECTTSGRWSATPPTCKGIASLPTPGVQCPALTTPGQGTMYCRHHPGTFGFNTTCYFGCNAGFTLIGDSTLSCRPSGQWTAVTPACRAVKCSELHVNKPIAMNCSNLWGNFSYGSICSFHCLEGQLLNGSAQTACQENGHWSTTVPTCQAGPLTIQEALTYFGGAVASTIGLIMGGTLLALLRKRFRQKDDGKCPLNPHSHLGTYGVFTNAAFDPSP
Put plainly: cell-based or functional assay.

Test [2] concerns the target T2, rat P-selectin (on thrombin-activated rat platelets) (rat, UniProt P98106 42-768).
T2 construct: whole, on cells
T2 sequence (looked up): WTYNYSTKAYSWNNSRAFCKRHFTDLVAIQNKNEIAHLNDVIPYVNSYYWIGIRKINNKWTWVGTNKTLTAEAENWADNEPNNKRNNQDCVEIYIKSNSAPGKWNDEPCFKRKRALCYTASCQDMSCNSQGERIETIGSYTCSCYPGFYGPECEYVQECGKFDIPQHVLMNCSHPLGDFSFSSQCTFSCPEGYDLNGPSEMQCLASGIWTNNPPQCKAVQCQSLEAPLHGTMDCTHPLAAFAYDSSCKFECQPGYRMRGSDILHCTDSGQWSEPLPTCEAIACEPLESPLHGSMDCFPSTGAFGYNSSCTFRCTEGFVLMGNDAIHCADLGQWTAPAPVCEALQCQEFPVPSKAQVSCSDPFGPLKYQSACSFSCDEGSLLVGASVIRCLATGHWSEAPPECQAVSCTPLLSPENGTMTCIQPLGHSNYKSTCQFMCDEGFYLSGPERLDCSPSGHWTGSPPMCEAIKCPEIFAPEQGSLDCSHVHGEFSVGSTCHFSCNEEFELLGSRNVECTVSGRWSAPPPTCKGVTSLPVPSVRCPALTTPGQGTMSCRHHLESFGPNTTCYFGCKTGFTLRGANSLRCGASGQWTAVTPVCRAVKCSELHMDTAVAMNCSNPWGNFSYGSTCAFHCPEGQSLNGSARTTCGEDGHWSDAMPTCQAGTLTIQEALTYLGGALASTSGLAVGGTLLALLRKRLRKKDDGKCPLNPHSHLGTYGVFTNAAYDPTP
Put plainly: rosetting assay: adhesion of thrombin-activated rat platelets to HL60 cells, FACS; absence of inhibition, shown as lack of cross-reactivity with rat P-selectin.

Test [3] deals with T3, E-selectin on E-selectin-CHO transfectants (UniProt P16581 22-610, limits assumed).
T3 construct: whole, on cells; also called E-selectin-CHO cells; E-selectin transfectants
T3 sequence (looked up): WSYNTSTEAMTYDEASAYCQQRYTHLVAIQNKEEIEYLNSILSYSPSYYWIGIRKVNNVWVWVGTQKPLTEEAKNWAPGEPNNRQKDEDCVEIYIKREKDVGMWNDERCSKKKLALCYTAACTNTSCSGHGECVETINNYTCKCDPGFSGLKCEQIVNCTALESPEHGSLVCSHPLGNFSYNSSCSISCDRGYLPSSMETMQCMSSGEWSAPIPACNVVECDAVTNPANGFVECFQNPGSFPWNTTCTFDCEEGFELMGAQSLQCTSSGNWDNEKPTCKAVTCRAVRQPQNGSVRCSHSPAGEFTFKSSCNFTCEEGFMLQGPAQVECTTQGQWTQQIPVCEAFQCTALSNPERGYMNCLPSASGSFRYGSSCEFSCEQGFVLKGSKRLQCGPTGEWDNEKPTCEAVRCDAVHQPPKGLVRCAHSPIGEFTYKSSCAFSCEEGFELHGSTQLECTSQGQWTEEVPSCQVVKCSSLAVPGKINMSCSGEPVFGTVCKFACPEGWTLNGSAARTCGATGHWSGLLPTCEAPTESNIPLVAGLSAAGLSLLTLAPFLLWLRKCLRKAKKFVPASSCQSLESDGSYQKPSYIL
Put plainly: cell-based ELISA on E-selectin-CHO transfectants, OD405. As to the method:
In the cell-based ELISA P— and E-selectin-CHO-transfectants, after detaching the cells with cell-dissociation solution (Sigma C5914), were seeded into each well of 96 well plates (TC Microwell F96 Nunc 167008) adjusted to 100,000 cells/well and cultivated in respective media overnight at 37° C. (medium for P— CHO-transfectants: DMEM+10% FCS+2 mM Glutamine+Penicillin 100 U/ml/Streptomycin 100 μg/ml; medium for E-selctin transfecttants: HAM F-12+10% FCS+2 mM Glutamine+Penicillin 100 U/ml/Streptomycin 100 μg/ml+0.1% Fungizone+100 μg/ml Neomycin). […] After washing the wells (4 times), the bound antibodies were detected using the same steps as mentioned above for the cell-free ELISA.
(In general: In an ELISA, binding on a coated surface is turned into a signal by an enzyme label.)

The target of test [4] is T4, Fcγ receptor on human NK cells (FcγRIII) (human, UniProt P08637 17-254).
T4 construct: whole, on cells; also called FcγR presented on NK cells
T4 sequence (P08637 17-254): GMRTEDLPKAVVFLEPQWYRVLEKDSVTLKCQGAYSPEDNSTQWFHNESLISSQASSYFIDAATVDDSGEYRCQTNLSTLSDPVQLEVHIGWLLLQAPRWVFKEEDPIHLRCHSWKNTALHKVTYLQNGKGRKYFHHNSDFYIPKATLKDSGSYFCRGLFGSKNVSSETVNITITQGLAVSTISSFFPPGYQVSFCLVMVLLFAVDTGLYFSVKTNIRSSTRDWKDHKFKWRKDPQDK
Put plainly: FACS on NK cells from human blood, antibody 10 µg/ml; no antibody: 0.03.

B1: HuMab 002 Fc variant IgG1v1 (PVA-236; GLPSS331: E233P; L234V; L235A; delta G236; A327G; A330S; P331S) (antibody)
heavy: EVQLVESGGGLVRPGGSLRLSCAASGFTFSNYDMHWVRQATGKGLEWVSAITAAGDIYYPGSVKGRFTISRENAKNSLYLQMNSLRAGDTAVYYCARGRYSGSGSYYNDWFDPWGQGTLVTVSSASTKGPSVFPLAPSSKSTSGGTAALGCLVKDYFPEPVTVSWNSGALTSGVHTFPAVLQSSGLYSLSSVVTVPSSSLGTQTYICNVNHKPSNTKVDKKVEPKSCDKTHTCPPCPAPPVAGPSVFLFPPKPKDTLMISRTPEVTCVVVDVSHEDPEVKFNWYVDGVEVHNAKTKPREEQYNSTYRVVSVLTVLHQDWLNGKEYKCKVSNKGLPSSIEKTISKAKGQPREPQVYTLPPSRDELTKNQVSLTCLVKGFYPSDIAVEWESNGQPENNYKTTPPVLDSDGSFFLYSKLTVDKSRWQQGNVFSCSVMHEALHNHYTQKSLSLSPGK
light: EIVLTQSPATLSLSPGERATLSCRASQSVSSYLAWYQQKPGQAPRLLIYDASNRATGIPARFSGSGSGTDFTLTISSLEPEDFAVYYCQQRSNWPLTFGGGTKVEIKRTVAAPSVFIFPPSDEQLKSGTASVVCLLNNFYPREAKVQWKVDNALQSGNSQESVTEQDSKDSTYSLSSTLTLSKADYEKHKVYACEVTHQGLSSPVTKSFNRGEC
notes: copies: 2 + 2
With B1, in test [1], the “IC50 (read off the curve), rosetting assay with thrombin-activated human platelets and HL60 cells” value is ~0.08 µg/mL. For the same molecule, the binding result in test [2] and in test [3] was “no binding (tested: 100 µg/ml)” throughout. Moreover, in test [4], the “% NK cells binding antibody” value was found to be 0.12%.

For the origin of these results see US20050226876A1 (Hoffmann-La Roche, published 2005).
